This note sets out measurements from PMC6658011.

This assay concerns the target full-length AMC011 Env trimer (HIV-1). The experiment in a line: negative-stain EM.

In turn, PGT145 Fab registered a stoichiometry N (Fab per trimer) of 1.
In the case of PGT151 Fab it was 2.
